These results are taken from US20160200782A1 (MOERAE MATRIX, published 2016).

Targets include PDGFRβ(h) (human, UniProt P09619 557-1106, limits assumed); PKCθ(h) (human, UniProt Q04759 1-706); BRK(h) (human, UniProt Q13882 1-451, limits assumed); MARK1(h) (human, UniProt Q9P0L2 1-795, limits assumed).
Common to all, as to assay: cell-based or functional assay
Another assay concerns the target T1, Tec(h)activated (human, UniProt P42680 1-631, limits assumed).
T1 sequence (looked up): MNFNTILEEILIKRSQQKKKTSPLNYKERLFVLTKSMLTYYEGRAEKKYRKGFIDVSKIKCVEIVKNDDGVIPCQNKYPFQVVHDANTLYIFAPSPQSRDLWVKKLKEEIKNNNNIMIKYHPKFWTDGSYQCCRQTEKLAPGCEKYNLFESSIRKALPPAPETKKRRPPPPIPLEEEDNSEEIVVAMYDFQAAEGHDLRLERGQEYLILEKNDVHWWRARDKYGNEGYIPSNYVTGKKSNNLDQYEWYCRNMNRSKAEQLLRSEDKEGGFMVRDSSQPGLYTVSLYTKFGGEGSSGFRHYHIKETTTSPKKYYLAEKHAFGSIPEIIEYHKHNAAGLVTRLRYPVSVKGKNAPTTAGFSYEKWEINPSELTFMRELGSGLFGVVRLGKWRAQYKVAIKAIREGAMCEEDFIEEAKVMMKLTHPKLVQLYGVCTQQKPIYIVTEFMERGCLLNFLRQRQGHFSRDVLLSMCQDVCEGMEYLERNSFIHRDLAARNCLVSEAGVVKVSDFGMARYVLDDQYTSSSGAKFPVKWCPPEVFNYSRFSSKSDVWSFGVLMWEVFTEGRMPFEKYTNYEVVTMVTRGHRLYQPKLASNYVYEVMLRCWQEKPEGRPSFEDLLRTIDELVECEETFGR

The target in the next assay is T2, TAK1(h) (human, UniProt O43318 1-303, limits assumed).
T2 sequence (looked up): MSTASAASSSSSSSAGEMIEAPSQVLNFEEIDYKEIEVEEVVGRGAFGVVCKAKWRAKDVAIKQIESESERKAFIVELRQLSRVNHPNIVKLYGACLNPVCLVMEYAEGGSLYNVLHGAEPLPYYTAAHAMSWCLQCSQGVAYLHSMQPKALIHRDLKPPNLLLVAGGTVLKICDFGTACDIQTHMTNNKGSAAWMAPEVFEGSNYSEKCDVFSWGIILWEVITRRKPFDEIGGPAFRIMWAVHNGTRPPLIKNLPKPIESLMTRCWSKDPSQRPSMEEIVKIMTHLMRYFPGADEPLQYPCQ

The next assay addresses T3, PKCζ(h) (human, UniProt Q05513 1-592).
T3 sequence (looked up): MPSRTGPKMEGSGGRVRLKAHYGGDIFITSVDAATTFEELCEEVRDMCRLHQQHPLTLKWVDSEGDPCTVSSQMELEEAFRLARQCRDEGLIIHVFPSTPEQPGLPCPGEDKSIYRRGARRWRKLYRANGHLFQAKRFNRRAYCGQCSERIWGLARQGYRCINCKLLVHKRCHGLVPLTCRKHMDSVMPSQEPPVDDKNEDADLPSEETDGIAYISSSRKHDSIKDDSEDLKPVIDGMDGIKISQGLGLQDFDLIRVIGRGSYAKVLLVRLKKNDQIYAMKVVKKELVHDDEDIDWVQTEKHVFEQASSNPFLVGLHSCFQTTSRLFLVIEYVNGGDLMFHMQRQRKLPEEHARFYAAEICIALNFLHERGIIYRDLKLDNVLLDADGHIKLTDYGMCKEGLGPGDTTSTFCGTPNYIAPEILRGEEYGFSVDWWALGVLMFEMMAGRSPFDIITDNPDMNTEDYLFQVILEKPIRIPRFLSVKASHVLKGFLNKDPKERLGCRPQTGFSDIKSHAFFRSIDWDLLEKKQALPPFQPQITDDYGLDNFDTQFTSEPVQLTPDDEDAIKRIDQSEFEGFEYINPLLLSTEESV

In another assay the target is T4, Flt3(h) (human, UniProt P36888 564-993, limits assumed).
T4 sequence (looked up): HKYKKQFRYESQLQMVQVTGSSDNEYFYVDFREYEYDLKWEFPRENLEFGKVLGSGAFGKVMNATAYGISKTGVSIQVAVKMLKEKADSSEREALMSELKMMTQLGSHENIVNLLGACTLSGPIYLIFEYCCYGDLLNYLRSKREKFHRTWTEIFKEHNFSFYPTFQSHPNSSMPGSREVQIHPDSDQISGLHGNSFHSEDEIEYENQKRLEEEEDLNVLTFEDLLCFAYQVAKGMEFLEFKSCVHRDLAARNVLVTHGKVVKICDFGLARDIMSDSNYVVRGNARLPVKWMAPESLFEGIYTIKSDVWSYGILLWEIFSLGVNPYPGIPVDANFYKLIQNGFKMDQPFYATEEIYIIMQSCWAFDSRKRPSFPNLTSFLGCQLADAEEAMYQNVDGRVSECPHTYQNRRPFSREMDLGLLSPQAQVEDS

The next assay concerns the target T5, Flt1(h) (human, UniProt P17948 781-1338, limits assumed).
T5 sequence (looked up): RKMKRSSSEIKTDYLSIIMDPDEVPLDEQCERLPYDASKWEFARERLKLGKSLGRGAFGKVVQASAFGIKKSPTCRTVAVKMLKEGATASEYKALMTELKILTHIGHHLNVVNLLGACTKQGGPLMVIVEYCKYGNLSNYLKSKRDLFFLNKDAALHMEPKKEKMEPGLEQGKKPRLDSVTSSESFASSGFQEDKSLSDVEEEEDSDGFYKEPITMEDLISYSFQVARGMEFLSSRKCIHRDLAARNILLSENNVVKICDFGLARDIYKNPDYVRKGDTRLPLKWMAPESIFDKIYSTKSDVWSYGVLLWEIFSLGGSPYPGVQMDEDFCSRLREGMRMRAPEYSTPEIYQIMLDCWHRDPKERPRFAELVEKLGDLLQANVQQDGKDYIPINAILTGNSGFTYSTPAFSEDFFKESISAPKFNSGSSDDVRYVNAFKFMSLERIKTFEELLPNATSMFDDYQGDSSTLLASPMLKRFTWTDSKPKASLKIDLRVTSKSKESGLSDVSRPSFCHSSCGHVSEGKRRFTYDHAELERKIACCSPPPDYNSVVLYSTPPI
Further: test concentration or dose not given here.

MARK1(h), sequence (Q9P0L2 whole entry): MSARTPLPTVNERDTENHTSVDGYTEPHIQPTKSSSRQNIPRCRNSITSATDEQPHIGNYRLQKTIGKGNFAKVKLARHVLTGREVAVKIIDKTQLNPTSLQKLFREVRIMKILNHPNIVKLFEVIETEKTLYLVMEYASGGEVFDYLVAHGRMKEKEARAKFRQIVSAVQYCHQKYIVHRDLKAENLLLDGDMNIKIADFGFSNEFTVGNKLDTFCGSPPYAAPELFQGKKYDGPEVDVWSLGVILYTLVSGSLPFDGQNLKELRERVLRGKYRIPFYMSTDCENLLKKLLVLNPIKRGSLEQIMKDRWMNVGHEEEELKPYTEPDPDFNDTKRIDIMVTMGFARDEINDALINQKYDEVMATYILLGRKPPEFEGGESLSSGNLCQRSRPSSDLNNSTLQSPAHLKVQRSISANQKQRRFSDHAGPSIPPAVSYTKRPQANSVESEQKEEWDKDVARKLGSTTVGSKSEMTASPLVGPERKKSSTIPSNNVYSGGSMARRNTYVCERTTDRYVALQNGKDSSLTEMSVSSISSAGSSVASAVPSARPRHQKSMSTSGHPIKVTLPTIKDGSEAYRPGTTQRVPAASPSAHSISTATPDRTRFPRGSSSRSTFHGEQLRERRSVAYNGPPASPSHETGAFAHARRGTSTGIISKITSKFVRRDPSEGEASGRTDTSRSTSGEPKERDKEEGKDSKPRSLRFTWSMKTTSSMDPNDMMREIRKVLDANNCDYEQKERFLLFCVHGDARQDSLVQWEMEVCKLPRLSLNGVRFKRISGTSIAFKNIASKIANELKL
PKCθ(h), sequence (Q04759 whole entry): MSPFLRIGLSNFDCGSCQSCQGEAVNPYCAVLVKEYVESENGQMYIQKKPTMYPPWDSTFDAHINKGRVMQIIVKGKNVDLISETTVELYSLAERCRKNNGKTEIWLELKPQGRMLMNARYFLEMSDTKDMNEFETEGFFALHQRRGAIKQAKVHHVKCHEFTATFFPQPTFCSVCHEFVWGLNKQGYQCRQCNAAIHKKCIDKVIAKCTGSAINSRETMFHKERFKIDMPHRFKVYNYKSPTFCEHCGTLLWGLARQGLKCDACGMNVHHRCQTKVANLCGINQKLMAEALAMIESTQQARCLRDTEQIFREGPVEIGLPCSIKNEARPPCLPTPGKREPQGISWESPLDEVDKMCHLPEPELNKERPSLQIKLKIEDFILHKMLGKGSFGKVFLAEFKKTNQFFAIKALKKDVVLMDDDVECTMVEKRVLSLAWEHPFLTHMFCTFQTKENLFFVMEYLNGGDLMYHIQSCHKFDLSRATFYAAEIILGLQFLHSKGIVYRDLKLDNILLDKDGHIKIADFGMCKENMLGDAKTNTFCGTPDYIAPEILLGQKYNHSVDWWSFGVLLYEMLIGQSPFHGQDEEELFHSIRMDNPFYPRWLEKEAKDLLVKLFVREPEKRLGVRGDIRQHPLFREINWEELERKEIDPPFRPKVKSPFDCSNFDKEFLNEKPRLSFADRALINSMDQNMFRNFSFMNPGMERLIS
PDGFRβ(h), sequence (P09619 557-1106 limits assumed): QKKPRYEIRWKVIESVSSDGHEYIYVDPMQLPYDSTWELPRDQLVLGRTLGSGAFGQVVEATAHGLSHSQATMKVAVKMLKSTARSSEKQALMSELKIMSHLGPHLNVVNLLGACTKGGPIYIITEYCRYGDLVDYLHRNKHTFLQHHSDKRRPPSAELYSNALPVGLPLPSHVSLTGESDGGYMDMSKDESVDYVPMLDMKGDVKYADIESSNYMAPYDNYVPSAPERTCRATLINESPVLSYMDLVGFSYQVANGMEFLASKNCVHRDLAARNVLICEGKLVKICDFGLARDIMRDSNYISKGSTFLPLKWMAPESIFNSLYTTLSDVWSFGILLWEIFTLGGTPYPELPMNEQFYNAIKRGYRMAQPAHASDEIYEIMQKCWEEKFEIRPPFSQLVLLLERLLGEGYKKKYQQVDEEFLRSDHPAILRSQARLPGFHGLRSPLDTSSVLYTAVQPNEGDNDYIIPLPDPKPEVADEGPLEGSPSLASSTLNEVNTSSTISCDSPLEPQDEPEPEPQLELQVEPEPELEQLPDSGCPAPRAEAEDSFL

Regarding FAKLAARLYRKALARQLGVAA [MMI-0300], the “% activity” value is 56% in the assay with Tec(h)activated; 122% with TAK1(h); 81% in the assay with PDGFRβ(h); 81% with PKCζ(h); 84% in the assay with Flt3(h); 88% in the assay with PKCθ(h). Further, the “% activity” value with BRK(h) was found to be 35%; in the assay with MARK1(h) it was 132%; with Flt1(h), 69%.
For KAFAKLAARLYRKALARQLGVAA [MMI-0400], the “% activity” value with Tec(h)activated was determined as 29%; with TAK1(h), 177%; in the assay with PDGFRβ(h), 53%; with PKCζ(h), 75%; in the assay with Flt3(h), 18%; with PKCθ(h), 76%. In addition, the “% activity” value in the assay with BRK(h) came out at 18%; in the assay with MARK1(h), 120%; with Flt1(h), 48%.
